Measured values taken from the supplement of paper PMC7125110.
± gives the standard error. Variants at the floor of the assay were thinned out.

B1: glmS ribozyme (parent)
chain: AUAAAAGCGCCAGAACUACAGAAAUGUAGUUGACGAGGAGGAGGUUUAUCGAAUUUUCGGCGGAUGCCUCCAAA

Variants of: B1
Assay: self-cleavage kobs at 2500 uM GlcN6P; higher = faster cleavage; RNA array
Conditions: with glucosamine-6-phosphate
Method in brief: (§1)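 The measurements used barcoded ribozyme variants on sequenced MiSeq chips, transcribed in situ by E. coli RNA polymerase and tracked at 37 °C with a hybridised Cy3 probe. Glucosamine-6-phosphate, 40 μM to 10 mM in HEPES/KCl/Mg(OAc)2 buffer, was flowed in while tiles were imaged over ~14 h. Baseline-normalised signals, also normalised to non-cleaving reference variants, gave per-tile medians that were fit to one- or two-exponential decays for kobs. kcat and KM resulted from weighted Michaelis–Menten fits across concentrations.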
AUAAAAGCGCCUAAACUACAGAAAUGUAGUUGACGAGUAGGAGGUUUAUCGAAUUUUCGGCGGAUGCCUCCAAA [A12U G13A G38U] was tested, and the “self-cleavage kobs at 2500 uM GlcN6P” value was under 1e-05 s⁻¹.
For AUAAAAGCGCCGGAACUACAGAAAUGUAGUUAACGAGGAGGAGGUUUAUCGAAUUUUCGUCGGAUGCCUCCAAA [A12G G32A G60U], the “self-cleavage kobs at 2500 uM GlcN6P” value was under 1e-05 s⁻¹.
For AUAAAAGCGCCCGAACUACAGAAAUGUAUUUGACGAGGAGGAGGUUUAUCGAAUUUUCGGCGGAAGCCUCCAAA [A12C G29U U65A], the “self-cleavage kobs at 2500 uM GlcN6P” value was 0.000175 ± 4.1e-05 s⁻¹.
In the case of AUAAAAGCGCCUGAACUACAGAAAUGUAGUUGACGCGGAUGAGGUAUAUCGAAUUUUCGGGGGAUGCCUCCAAA [A12U A36C G40U U46A C61G], the “self-cleavage kobs at 2500 uM GlcN6P” value is reported as under 1e-05 s⁻¹.
In the case of AUAAAAGCGCCUGUACUACAGAAAUGUAGUUGCCGAGGAGGAGGUUUAUUGAAUUUUCGGCGGAUGCCUCCAAA [A12U A14U A33C C50U], the “self-cleavage kobs at 2500 uM GlcN6P” value is reported as under 1e-05 s⁻¹.
In the case of AUAAAAGCGCCGGAACUACAGAAAUGUAGUUGACGAGGAGGAGGUUUAUCGAAUUUUCUUCGGAGGCCUCCAAA [A12G G59U G60U U65G], the “self-cleavage kobs at 2500 uM GlcN6P” value is reported as under 1e-05 s⁻¹.
With AUAAAAGCGCCGGAACUACAGAAAUGUAGUUGAUGAGGAGGAGGUUUAUCGAAUUUUCGGCGGAUGCAUCCAAA [A12G C34U C68A] the “self-cleavage kobs at 2500 uM GlcN6P” value was under 1e-05 s⁻¹.
AUAAAAGCGCCCGAAUUACAGAAAUGUAGUUGACGAGGUGGAGGUUUAUCGAAUUUUCGGCGGAUGCCUCCAAA [A12C C16U A39U] was tested, and the “self-cleavage kobs at 2500 uM GlcN6P” value was 0.00306 ± 0.00084 s⁻¹.
AUAAAAGCGCCGGAACUACAGAAAUGUACUUGACUAGGUGCAGGUUUAUCGAAUUUUCGGCGGGUGCCUCCAAA [A12G G29C G35U A39U G41C A64G] was tested, and the “self-cleavage kobs at 2500 uM GlcN6P” value was under 1e-05 s⁻¹.
AUAAAAGCGCCUGAGCUACAGAAAUGUAGUUGACGAGGAGGAGGCUUAUGGAAUUUUCGGAGGAUGCCUCCAAA [A12U A15G U45C C50G C61A] was tested, and the “self-cleavage kobs at 2500 uM GlcN6P” value was under 1e-05 s⁻¹.
In the case of AUAAAAGCGCCUGACCUACAGAAAUGUAGUUGACGAGGAGGAGUUUUAUCGAAUUUUCGGCGGAUGCCUCCAAA [A12U A15C G44U], the “self-cleavage kobs at 2500 uM GlcN6P” value is reported as 4.81e-05 ± 1.7e-05 s⁻¹.
In the case of AUAAAAGCGCCGGAACUACAGAAAUGUAGUUGCCGACGACGAGGUUUAUCGAAUUUUCGGCGGAUGCCUCCAAA [A12G A33C G37C G40C], the “self-cleavage kobs at 2500 uM GlcN6P” value is reported as under 1e-05 s⁻¹.
AUAAAAGCGCCGGAACUACAGAAAUGUAUUUGACGAGGAGGAGGUUUAUCGAAUUUUAUGCGGAUGACUCCAAA [A12G G29U C58A G59U C67A] was tested, and the “self-cleavage kobs at 2500 uM GlcN6P” value was under 1e-05 s⁻¹.
With AUAAAAGCGCCUGAACUACAGAAAUGUAGUUGAAAAGGAGGAGGUUUAGCGAAUUUUCGGCGGAUGCCUCCAAA [A12U C34A G35A U49G] the “self-cleavage kobs at 2500 uM GlcN6P” value was under 1e-05 s⁻¹.
For AUAAAAGCGCCCGAACUACAGAAAUGUAGUUGACGAGGAGGAGGUUUAUCGUAUUUUCGGCGGAUGUCUCCAAA [A12C A52U C67U], the “self-cleavage kobs at 2500 uM GlcN6P” value was 0.000185 ± 4.2e-05 s⁻¹.
With AUAAAAGCGCCUGAACUACAGAAAUGUAGUUCACGAGGAUGAGGCUUAUCGAAUUUUCGGCGGAUGCCUCCAAA [A12U G32C G40U U45C] the “self-cleavage kobs at 2500 uM GlcN6P” value was under 1e-05 s⁻¹.
AUAAAAGCGCCGGAACUACAGAAAUGUAGUUGACGAGGCGGUGGUUUAUCGAAUUUUCGGCGGAUGCCUCCAAA [A12G A39C A42U] was tested, and the “self-cleavage kobs at 2500 uM GlcN6P” value was 3.14e-05 ± 1.5e-05 s⁻¹.
In the case of AUAAAAGCGCCGGAACUACAGAAAUGUAGUUGAAGAGGAGGAGGAUUAUCGAAUUUUCGGCGGAUGCCUCCAAA [A12G C34A U45A], the “self-cleavage kobs at 2500 uM GlcN6P” value is reported as under 1e-05 s⁻¹.
For AUAAAAGCGCCGGAACUACAGAAAUGUAGUCGACGAGGAGGAGGUUUAUCGAACUUUCGGCGGAUGCCUCCAAA [A12G U31C U54C], the “self-cleavage kobs at 2500 uM GlcN6P” value was 3.97e-05 ± 1.2e-05 s⁻¹.
AUAAAAGCGCUAGAACUACAGAAAUGUAGUUGACGAGGAGGAGGUUCAUCGAAUUUUCGGCAGAUGCCUCCAAA [C11U U47C G62A] was tested, and the “self-cleavage kobs at 2500 uM GlcN6P” value was under 1e-05 s⁻¹.
With AUAAAAGCGCCGGAACUACAGAAAUGUAGUUGACGAGGAGGAGAUUUAUCGAAUUUUCGGCGGAUGCCUACAAA [A12G G44A C70A] the “self-cleavage kobs at 2500 uM GlcN6P” value was under 1e-05 s⁻¹.
AUAAAAGCGCCCGAAUUACAGAAAUGUAGUUGACGCGGAGGAGGUUUAUCGAAUUUUCGGCGGAUGCCUCCAAA [A12C C16U A36C] was tested, and the “self-cleavage kobs at 2500 uM GlcN6P” value was under 1e-05 s⁻¹.
AUAAAAGCGCCGGAACUACAGAAAUGUAGUUGACGAGGAGGAGGUUUCUUGAAUUUUCGGCGGAUGCCUCCAAA [A12G A48C C50U] was tested, and the “self-cleavage kobs at 2500 uM GlcN6P” value was under 1e-05 s⁻¹.
With AUAAAAGCGCCGGAACUACAGAAAUGUAGUUGACGAGGAAGAGGUUUAUCGAAUUUUCGACGGAUGCCGCCAAA [A12G G40A G60A U69G] the “self-cleavage kobs at 2500 uM GlcN6P” value was under 1e-05 s⁻¹.
In the case of AUAAAAGCGCCGGAACUACAGAAAUGUAGUUGACGAGGAGGAGGUUUGUCGAAUCUGCGGCGGAUGCCUCCAAA [A12G A48G U55C U57G], the “self-cleavage kobs at 2500 uM GlcN6P” value is reported as under 1e-05 s⁻¹.
In the case of AUAAAAGCGCCGGAAUUACAGAAAUGUAGUUGACGAGGAGGAGGUUUAUCGACUUUUCGGCGGAUGCCUCCAAA [A12G C16U A53C], the “self-cleavage kobs at 2500 uM GlcN6P” value is reported as 7.22e-05 ± 1.7e-05 s⁻¹.
For AUAAAAGCGCCGGAACUACAGAAAUGUAGUAGACGAGGAGGAGGAUUAUCGAAUUUUCGGCGGAUGCCUCCAAA [A12G U31A U45A], the “self-cleavage kobs at 2500 uM GlcN6P” value was 0.000216 ± 6.4e-05 s⁻¹.
AUAAAAGCGCCCGAGCUACAGAAAUGUAGUUGACGAGGAGGAGGUUUAUCGAAUUUUCGGCGGAUUACUCCAAA [A12C A15G G66U C67A] was tested, and the “self-cleavage kobs at 2500 uM GlcN6P” value was 0.000636 ± 0.00013 s⁻¹.
With AUAAAAGCGCCCCAACUACAGAAAUGUAGUUGACGAGGAGGUGGUUUACCGAAUUUUCGGCGGAUGCCUCCAAA [A12C G13C A42U U49C] the “self-cleavage kobs at 2500 uM GlcN6P” value was under 1e-05 s⁻¹.
AUAAAAGCGCCGGAACUACAGAAAUGUAGUUGACGAGGAUGAGGUAUAUCGAAUUUUUGGCGGAUGCCUCCAAA [A12G G40U U46A C58U] was tested, and the “self-cleavage kobs at 2500 uM GlcN6P” value was under 1e-05 s⁻¹.
In the case of AUAAAAGCGCUAGAACUACAGAAAUGUAGUUGACGAGGAGGAGGUUUAUCGAAUAUUGGGCGGAUGCCUCCAAA [C11U U55A C58G], the “self-cleavage kobs at 2500 uM GlcN6P” value is reported as 5.84e-05 ± 1.6e-05 s⁻¹.
AUAAAAGCGCCGGCACUACAGAAAUGUAGUUGACGAGGAGGAGGUUUAUCGAAUUUUCGGCGGGUGCCUCCAAA [A12G A14C A64G] was tested, and the “self-cleavage kobs at 2500 uM GlcN6P” value was 4.13e-05 ± 1.6e-05 s⁻¹.
For AUAAAAGCGCCGGAACUACAGAAAUGUAGUUGACGAGGAGGAGGUUUAUCGAGUUUUCGGCGGAUGCCCCCAAA [A12G A53G U69C], the “self-cleavage kobs at 2500 uM GlcN6P” value was 0.000297 ± 0.00012 s⁻¹.
In the case of AUAAAAGCGCCUGAAAUACAGAAAUGUAGUUGACGAGGAGGAGGUCUAUCGAAUUUUCGGCGGAUGCCUCCAAA [A12U C16A U46C], the “self-cleavage kobs at 2500 uM GlcN6P” value is reported as 0.000144 ± 4.6e-05 s⁻¹.

Variants of: B1
Assay: self-cleavage kobs at 10000 uM GlcN6P; higher = faster cleavage; RNA array
Conditions: with glucosamine-6-phosphate
Method in brief: as §1
AUAAAAGCGCCCGAACUACAGAAAUGUAUUUGACGAGGAGGAGGUUUAUCGAAUUUUCGGCGGAAGCCUCCAAA [A12C G29U U65A] was tested, and the “self-cleavage kobs at 10000 uM GlcN6P” value was 0.000443 ± 7.6e-05 s⁻¹.
For AUAAAAGCGCCGGAACUACAGAAAUGUAGUUGAAGAGGAGGAGGAUUAUCGAAUUUUCGGCGGAUGCCUCCAAA [A12G C34A U45A], the “self-cleavage kobs at 10000 uM GlcN6P” value was under 1e-05 s⁻¹.
With AUAAAAGCGCCUGAAAUACAGAAAUGUAGUUGACGAGGAGGAGGUCUAUCGAAUUUUCGGCGGAUGCCUCCAAA [A12U C16A U46C] the “self-cleavage kobs at 10000 uM GlcN6P” value was 0.000331 ± 7.6e-05 s⁻¹.
